Measurements from PMC10850970, “Characterization of N-glycosylation and its functional role in SIDT1-Mediated RNA uptake”.

Legend:
SIDT1 ECD-Fc = biological target: T1, SIDT1 ECD-Fc (Homo sapiens, UniProt Q9NXL6 23-310); experiment: EMSA; pH 5.5; legend says FAM-labeled RNA; EMSA: 40 mM Tris-acetate pH 5.5, 100 mM NaCl, 2.5 mM EDTA, 5% glycerol, RT 30 min, 2.5 uM RNA; MST: 25 mM MES pH 5.5, 100 mM NaCl, 0.05% Tween-20, 25 C, 5 nM labeled protein; conditions: protein: recombinant; tags: C-terminal Fc; chain copies: 2; label: 5'-FAM; single strand
T1 sequence: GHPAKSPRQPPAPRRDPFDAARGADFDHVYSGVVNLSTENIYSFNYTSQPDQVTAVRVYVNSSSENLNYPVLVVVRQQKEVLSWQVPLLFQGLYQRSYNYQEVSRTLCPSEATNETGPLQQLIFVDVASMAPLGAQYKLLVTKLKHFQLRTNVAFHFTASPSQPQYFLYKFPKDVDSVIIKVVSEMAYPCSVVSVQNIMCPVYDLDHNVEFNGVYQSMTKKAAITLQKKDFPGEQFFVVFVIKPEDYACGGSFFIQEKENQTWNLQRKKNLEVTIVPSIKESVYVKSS

SIDT1 ECD = biological target: T2, SIDT1 ECD (Homo sapiens, UniProt Q9NXL6 23-310); experiment: EMSA; pH 5.5; EMSA: 40 mM Tris-acetate pH 5.5, 100 mM NaCl, 2.5 mM EDTA, 5% glycerol, RT 30 min, 2.5 uM RNA; MST: 25 mM MES pH 5.5, 100 mM NaCl, 0.05% Tween-20, 25 C, 5 nM labeled protein; conditions: protein: recombinant; C-terminal 6xHis; label: 5'-FAM; single strand
T2 sequence: T1 sequence

[1] = precipitation after deglycosylation; conditions: glycan lost; control: untreated purified SIDT1ECD
[2] = Amplex Red phospholipase assay; conditions: glycan lost; control: untreated full-length SIDT1
[3] = Western blot of cells and medium, HEK293F; conditions: glycan lost; control: WT SIDT1ECD
[4] = differential scanning fluorometry (Tycho); conditions: glycan changed form; control: SIDT1ECD expressed without kifunensine, same pH
[5] = 0-4 h incubation at pH 3.5, SDS-PAGE; conditions: glycan changed form; control: SIDT1ECD expressed without kifunensine

Question: Does UCGCUUGGUGCAGAUCGGGAC (ssRNA) [FAM-ssRNA 21 nt] bind (SIDT1 ECD-Fc)?
Answer: binds

Question: Does UCGCUUGGUGCAGAUCGGGAC (ssRNA) [FAM-ssRNA 21 nt] bind (SIDT1 ECD)?
Answer: binds

B1: SIDT1: PNGase F (protein)
parent chain: MRGCLRLALLCALPWLLLAASPGHPAKSPRQPPAPRRDPFDAARGADFDHVYSGVVNLSTENIYSFNYTSQPDQVTAVRVYVNSSSENLNYPVLVVVRQQKEVLSWQVPLLFQGLYQRSYNYQEVSRTLCPSEATNETGPLQQLIFVDVASMAPLGAQYKLLVTKLKHFQLRTNVAFHFTASPSQPQYFLYKFPKDVDSVIIKVVSEMAYPCSVVSVQNIMCPVYDLDHNVEFNGVYQSMTKKAAITLQKKDFPGEQFFVVFVIKPEDYACGGSFFIQEKENQTWNLQRKKNLEVTIVPSIKESVYVKSSLFSVFIFLSFYLGCLLVGFVHYLRFQRKSIDGSFGSNDGSGNMVASHPIAASTPEGSNYGTIDESSSSPGRQMSSSDGGPPGQSDTDSSVEESDFDTMPDIESDKNIIRTKMFLYLSDLSRKDRRIVSKKYKIYFWNIITIAVFYALPVIQLVITYQTVVNVTGNQDICYYNFLCAHPLGVLSAFNNILSNLGHVLLGFLFLLIVLRRDILHRRALEAKDIFAVEYGIPKHFGLFYAMGIALMMEGVLSACYHVCPNYSNFQFDTSFMYMIAGLCMLKLYQTRHPDINASAYSAYASFAVVIMVTVLGVVFGKNDVWFWVIFSAIHVLASLALSTQIYYMGRFKIDLGIFRRAAMVFYTDCIQQCSRPLYMDRMVLLVVGNLVNWSFALFGLIYRPRDFASYMLGIFICNLLLYLAFYIIMKLRSSEKVLPVPLFCIVATAVMWAAALYFFFQNLSSWEGTPAESREKNRECILLDFFDDHDIWHFLSATALFFSFLVLLTLDDDLDVVRRDQIPVF
Question: What does the source list for B1?
Answer: stability_or_folding [1]: decreases; enzymatic_activity [2]: no change

B2: SIDT1: N83Q (protein)
parent chain: B1 parent chain
Question: With B2 as the binder, how does the expression_or_secretion [3] read?
Answer: no change

B3: SIDT1: N57Q (protein)
parent chain: B1 parent chain
Question: With B3 as the binder, how does the expression_or_secretion [3] read?
Answer: decreases

B4: SIDT1: kifunensine, pH 5.5 (protein)
parent chain: B1 parent chain
Question: For B4, which “stability_or_folding, Tm” value [4] is on record?
Answer: decreases, decrease of 1.7 vs 55.1 (pH 7.5), 60.5 (pH 5.5), 61.1 (pH 3.5)

B5: SIDT1: N67Q (protein)
parent chain: B1 parent chain
Question: For B5, which expression_or_secretion [3] is on record?
Answer: decreases

B6: SIDT1: kifunensine, pH 7.5 (protein)
parent chain: B1 parent chain
Question: With B6 as the binder, how does the “stability_or_folding, Tm” value [4] read?
Answer: decreases, decrease of 4.7 vs 55.1 (pH 7.5), 60.5 (pH 5.5), 61.1 (pH 3.5)

B7: SIDT1: kifunensine, pH 3.5 (protein)
parent chain: B1 parent chain
Question: Which “stability_or_folding, Tm” value [4] does the source give for B7 here?
Answer: decreases, decrease of 5.4 vs 55.1 (pH 7.5), 60.5 (pH 5.5), 61.1 (pH 3.5)

B8: SIDT1: kifunensine (protein)
parent chain: B1 parent chain
Question: For B8, which degradation_or_half_life [5] is on record?
Answer: increases

B9: SIDT1: SIDT1ECD mutant (all N to Q) (protein)
parent chain: B1 parent chain
Question: With B9 as the binder, how does the expression_or_secretion [3] read?
Answer: decreases

B10: SIDT1: N136Q (protein)
parent chain: B1 parent chain
Question: For B10, which expression_or_secretion [3] is on record?
Answer: decreases

B11: SIDT1: N282Q (protein)
parent chain: B1 parent chain
Question: With B11 as the binder, how does the expression_or_secretion [3] read?
Answer: no change
